{
  "source": "paper PMC3405102",
  "about": "“Solution Structure of the LIM-Homeodomain Transcription Factor Complex Lhx3/Ldb1 and the Effects of a Pituitary Mutation on Key Lhx3 Interactions” (PLoS ONE, 2012)",
  "binders": {"B1": {"name": "Ldb1LID as it stands in the tethered complex Ldb1-Lhx3 (domain or fragment, mouse, UniProt P70662-3 300-339, looked up)", "chain": "DVMVVGEPTLMGGEFGDEDERLITRLENTQFDAANGIDDE", "notes": "numbers count on: isoform P70662-3; source: part of the tethered Ldb1-Lhx3 chain"}},
  "target": "T1, Lhx3 LIM1+2 as it stands in the tethered complex Ldb1-Lhx3 (mouse, UniProt P50481-1 28-153)",
  "T1 construct": "Lhx3 (LIM homeobox protein 3), mouse, both LIM domains, residues 28-153; source: part of the tethered Ldb1-Lhx3 chain",
  "T1 sequence (looked up)": "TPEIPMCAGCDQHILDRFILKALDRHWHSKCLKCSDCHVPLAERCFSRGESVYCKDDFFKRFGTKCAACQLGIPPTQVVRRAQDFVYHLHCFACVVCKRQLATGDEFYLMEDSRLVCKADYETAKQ",
  "experiment": "SAXS; Ldb1-Lhx3 tethered complex at 4.5 mg mL^-1 in 20 mM Na2HPO4, 40 mM NaCl, 1 mM DTT, pH 6.8, 283 K; mass from I(0), Guinier analysis, DAMMIF and BUNCH modelling",
  "details": "both partners purified",
  "data": [
    {"binder": "B1", "values": [
      {"measurement": "binding result", "result": "binds"}
    ]}
  ]
}
